Experimental data from patent US20140087995A1 (published 2014).
Numbered stars: 1 amine (or outer) side, 2 acyl side, 3 side chain; on linkers, the order of the positions; unused ones are H or OH. Bridge positions count the residues as written; N and C are the ends. Side chains are listed from the residue outwards. Ends that are not written are not given here. * marks the point of attachment. C20 diacid = O=C(O)CCCCCCCCCCCCCCCCCCC(=O)*; γGlu = O=C(O)[C@H](CCC(=O)[*:2])N[*:1]; AEEA = NCCOCCOCC(=O)O

T1: human calcitonin receptor (human, UniProt P30988 25-474)
T1 construct: whole, on cells; also called hCTR; hCT
T1 sequence (looked up): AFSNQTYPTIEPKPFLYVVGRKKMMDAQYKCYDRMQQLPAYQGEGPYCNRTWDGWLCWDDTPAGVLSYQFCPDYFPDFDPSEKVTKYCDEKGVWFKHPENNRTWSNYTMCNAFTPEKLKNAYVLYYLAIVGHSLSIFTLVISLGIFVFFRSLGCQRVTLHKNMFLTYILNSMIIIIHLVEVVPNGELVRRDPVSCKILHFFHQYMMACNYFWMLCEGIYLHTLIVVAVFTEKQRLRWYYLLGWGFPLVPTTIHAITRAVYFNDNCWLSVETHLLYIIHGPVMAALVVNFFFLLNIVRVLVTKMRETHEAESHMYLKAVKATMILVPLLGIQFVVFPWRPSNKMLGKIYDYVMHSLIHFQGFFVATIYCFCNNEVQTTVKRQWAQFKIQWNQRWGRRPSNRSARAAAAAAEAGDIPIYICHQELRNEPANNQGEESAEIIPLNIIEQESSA


Assays:
[1] = target: T1, human calcitonin receptor; test: SPA radioligand competition (125I-calcitonin), membranes of BHK cells with human calcitonin receptor
Procedure: Membranes were prepared in the following way; the cells were rinsed with PBS and incubated with Versene for approximately 5 min before harvesting. The cells were flushed with PBS and the cell-suspension was centrifuged for 5 min at 1000 rpm. Cells were homogenized (Ultrathurrax) in a buffer containing 20 mM Na-HEPES and 10 mM EDTA (pH 7.4) and centrifuged at 20.000 rpm for 15 min. The resulting pellet was resuspended, homogenized and centrifuged (20.000 rpm, 15 min) in a buffer containing 20 mM Na-HEPES and 0.1 mM EDTA (pH 7.4, buffer 2). The resulting pellet was resuspended in buffer 2 and protein concentration was measured (BCA protein Assay, Pierce). The homogenate was kept cold during the whole procedure. The membranes were kept at −80° C. until use. Assay was performed in a 384 well Optiplate (PerkinElmer) in a total volume of 40 ul. Membranes were mixed with SPA beads. Final concentration of membranes 35 ng/μL final and Final concentration of SPA beads was 0.05 mg/well. Test-compounds were dissolved in DMSO and further diluted in assay buffer (50 mM Hepes, pH 7.4, 1 mM CaCl2, 5 mM MgCl₂, 0.1% OA and 0.02% Tween20). […] The final mixture was incubated for 120 min with shaking at 400 rpm at 25° C. prior to centrifugation (1500 rpm, 10 min). Samples were analyzed on TopCounter™ (Packard). The […] was calculated using (one site binding competition analysis) GraphPad Prism5 as a measure of receptor affinity.

[2] = target: T1, human calcitonin receptor; test: ratio of IC50 at human calcitonin receptor to IC50 at human amylin receptor (SPA competition assays)
Procedure: The resulting pellet was resuspended, homogenized and centrifuged (20.000 rpm, 15 min) in a buffer containing 20 mM Na-HEPES and 0.1 mM EDTA (pH 7.4, buffer 2). The resulting pellet was resuspended in buffer 2 and protein concentration was measured (BCA protein Assay, Pierce). The homogenate was kept cold during the whole procedure. The membranes were kept at −80° C. until use. The assay was performed in a 384 well Optiplate (PerkinElmer) in a total volume of 40 ul. Membranes were mixed with SPA beads. Final concentration of membranes 35 ng/μL final and SPA beads was 0.05 mg/well. Test-compounds were dissolved in DMSO and further diluted in assay buffer (50 mM Hepes, pH 7.4, 1 mM CaCl2, 5 mM MgCl₂, 0.1% OA and 0.02% Tween20). […] The final mixture was incubated with shaking at 400 rpm for 120 min at 25° C. prior to centrifugation (1500 rpm, 10 min). Samples were analyzed on TopCounter™ (Packard). The IC₅₀ was calculated using (one site binding competition analysis) GraphPad Prism5 as a measure of receptor affinity.
Membranes were prepared in the following way; the cells were rinsed with PBS and incubated with Versene for approximately 5 min before harvesting. The cells were flushed with PBS and the cell-suspension was centrifuged for 5 min at 1000 rpm. Cells were homogenized (Ultrathurrax) in a buffer containing 20 mM Na-HEPES and 10 mM EDTA (pH 7.4) and centrifuged at 20.000 rpm for 15 min. The resulting pellet was resuspended, homogenized and centrifuged (20.000 rpm, 15 min) in a buffer containing 20 mM Na-HEPES and 0.1 mM EDTA (pH 7.4, buffer 2). The resulting pellet was resuspended in buffer 2 and protein concentration was measured (BCA protein Assay, Pierce). The homogenate was kept cold during the whole procedure. The membranes were kept at −80° C. until use. Assay was performed in a 384 well Optiplate (PerkinElmer) in a total volume of 40 ul. Membranes were mixed with SPA beads.

Row | Binder | IC50 [1] [µM] | Ratio hCT/hAmylin binding [2]
1 | K([AEEA-γGlu-C20 diacid])CNTATCATQRLARFLRHSSPNFGAIPSSTNVGSNTY-NH2 (disulfide 2-7; N-terminus assumed; SMILES CC[C@H](C)[C@H](NC(=O)[C@H](C)NC(=O)CNC(=O)[C@H](Cc1ccccc1)NC(=O)[C@H](CC(N)=O)NC(=O)[C@@H]1CCCN1C(=O)[C@H](CO)NC(=O)[C@H](CO)NC(=O)[C@H](Cc1c[nH]cn1)NC(=O)[C@H](CCCNC(=N)N)NC(=O)[C@H](CC(C)C)NC(=O)[C@H](Cc1ccccc1)NC(=O)[C@H](CCCNC(=N)N)NC(=O)[C@H](C)NC(=O)[C@H](CC(C)C)NC(=O)[C@H](CCCNC(=N)N)NC(=O)[C@H](CCC(N)=O)NC(=O)[C@@H](NC(=O)[C@H](C)NC(=O)[C@@H]1CSSC[C@H](NC(=O)[C@@H](N)CCCCNC(=O)COCCOCCNC(=O)CC[C@H](NC(=O)CCCCCCCCCCCCCCCCCCC(=O)O)C(=O)O)C(=O)N[C@@H](CC(N)=O)C(=O)N[C@@H]([C@@H](C)O)C(=O)N[C@@H](C)C(=O)N[C@@H]([C@@H](C)O)C(=O)N1)[C@@H](C)O)C(=O)N1CCC[C@H]1C(=O)N[C@@H](CO)C(=O)N[C@@H](CO)C(=O)N[C@H](C(=O)N[C@@H](CC(N)=O)C(=O)N[C@H](C(=O)NCC(=O)N[C@@H](CO)C(=O)N[C@@H](CC(N)=O)C(=O)N[C@H](C(=O)N[C@@H](Cc1ccc(O)cc1)C(N)=O)[C@@H](C)O)C(C)C)[C@@H](C)O, also called compound 82) | 0.0888 | 140
2 | K([AEEA-γGlu-C20 diacid])CNTATCATQRLAAFLRHSSPNFGAIPSSTPVGSNTY-NH2 (disulfide 2-7; N-terminus assumed; SMILES CC[C@H](C)[C@H](NC(=O)[C@H](C)NC(=O)CNC(=O)[C@H](Cc1ccccc1)NC(=O)[C@H](CC(N)=O)NC(=O)[C@@H]1CCCN1C(=O)[C@H](CO)NC(=O)[C@H](CO)NC(=O)[C@H](Cc1c[nH]cn1)NC(=O)[C@H](CCCNC(=N)N)NC(=O)[C@H](CC(C)C)NC(=O)[C@H](Cc1ccccc1)NC(=O)[C@H](C)NC(=O)[C@H](C)NC(=O)[C@H](CC(C)C)NC(=O)[C@H](CCCNC(=N)N)NC(=O)[C@H](CCC(N)=O)NC(=O)[C@@H](NC(=O)[C@H](C)NC(=O)[C@@H]1CSSC[C@H](NC(=O)[C@@H](N)CCCCNC(=O)COCCOCCNC(=O)CC[C@H](NC(=O)CCCCCCCCCCCCCCCCCCC(=O)O)C(=O)O)C(=O)N[C@@H](CC(N)=O)C(=O)N[C@@H]([C@@H](C)O)C(=O)N[C@@H](C)C(=O)N[C@@H]([C@@H](C)O)C(=O)N1)[C@@H](C)O)C(=O)N1CCC[C@H]1C(=O)N[C@@H](CO)C(=O)N[C@@H](CO)C(=O)N[C@H](C(=O)N1CCC[C@H]1C(=O)N[C@H](C(=O)NCC(=O)N[C@@H](CO)C(=O)N[C@@H](CC(N)=O)C(=O)N[C@H](C(=O)N[C@@H](Cc1ccc(O)cc1)C(N)=O)[C@@H](C)O)C(C)C)[C@@H](C)O, also called compound 72) | 0.0424 | 247

Stronger by IC50 [1], values ahead:

Row | IC50 [1] [µM] | Ratio hCT/hAmylin binding [2] | Binder
3 | 0.0132 | 79.6 | K([AEEA-AEEA-γGlu-C20 diacid])CNTATCATQRLANFLRHSSPNFGAIPSSTPVGSNTY-NH2 (disulfide 2-7; N-terminus assumed; SMILES CC[C@H](C)[C@H](NC(=O)[C@H](C)NC(=O)CNC(=O)[C@H](Cc1ccccc1)NC(=O)[C@H](CC(N)=O)NC(=O)[C@@H]1CCCN1C(=O)[C@H](CO)NC(=O)[C@H](CO)NC(=O)[C@H](Cc1c[nH]cn1)NC(=O)[C@H](CCCNC(=N)N)NC(=O)[C@H](CC(C)C)NC(=O)[C@H](Cc1ccccc1)NC(=O)[C@H](CC(N)=O)NC(=O)[C@H](C)NC(=O)[C@H](CC(C)C)NC(=O)[C@H](CCCNC(=N)N)NC(=O)[C@H](CCC(N)=O)NC(=O)[C@@H](NC(=O)[C@H](C)NC(=O)[C@@H]1CSSC[C@H](NC(=O)[C@@H](N)CCCCNC(=O)COCCOCCNC(=O)COCCOCCNC(=O)CC[C@H](NC(=O)CCCCCCCCCCCCCCCCCCC(=O)O)C(=O)O)C(=O)N[C@@H](CC(N)=O)C(=O)N[C@@H]([C@@H](C)O)C(=O)N[C@@H](C)C(=O)N[C@@H]([C@@H](C)O)C(=O)N1)[C@@H](C)O)C(=O)N1CCC[C@H]1C(=O)N[C@@H](CO)C(=O)N[C@@H](CO)C(=O)N[C@H](C(=O)N1CCC[C@H]1C(=O)N[C@H](C(=O)NCC(=O)N[C@@H](CO)C(=O)N[C@@H](CC(N)=O)C(=O)N[C@H](C(=O)N[C@@H](Cc1ccc(O)cc1)C(N)=O)[C@@H](C)O)C(C)C)[C@@H](C)O, also called compound 96)
4 | 0.00674 | 74.1 | K([AEEA-AEEA-γGlu-C20 diacid])CNTATCATQRLANFLRHSSPNFGAIPSSTNVGPNTY-NH2 (disulfide 2-7; N-terminus assumed; SMILES CC[C@H](C)[C@H](NC(=O)[C@H](C)NC(=O)CNC(=O)[C@H](Cc1ccccc1)NC(=O)[C@H](CC(N)=O)NC(=O)[C@@H]1CCCN1C(=O)[C@H](CO)NC(=O)[C@H](CO)NC(=O)[C@H](Cc1c[nH]cn1)NC(=O)[C@H](CCCNC(=N)N)NC(=O)[C@H](CC(C)C)NC(=O)[C@H](Cc1ccccc1)NC(=O)[C@H](CC(N)=O)NC(=O)[C@H](C)NC(=O)[C@H](CC(C)C)NC(=O)[C@H](CCCNC(=N)N)NC(=O)[C@H](CCC(N)=O)NC(=O)[C@@H](NC(=O)[C@H](C)NC(=O)[C@@H]1CSSC[C@H](NC(=O)[C@@H](N)CCCCNC(=O)COCCOCCNC(=O)COCCOCCNC(=O)CC[C@H](NC(=O)CCCCCCCCCCCCCCCCCCC(=O)O)C(=O)O)C(=O)N[C@@H](CC(N)=O)C(=O)N[C@@H]([C@@H](C)O)C(=O)N[C@@H](C)C(=O)N[C@@H]([C@@H](C)O)C(=O)N1)[C@@H](C)O)C(=O)N1CCC[C@H]1C(=O)N[C@@H](CO)C(=O)N[C@@H](CO)C(=O)N[C@H](C(=O)N[C@@H](CC(N)=O)C(=O)N[C@H](C(=O)NCC(=O)N1CCC[C@H]1C(=O)N[C@@H](CC(N)=O)C(=O)N[C@H](C(=O)N[C@@H](Cc1ccc(O)cc1)C(N)=O)[C@@H](C)O)C(C)C)[C@@H](C)O, also called compound 98)
